Experimental data as given in IntAct's records for PubMed 12403843.

B1: Vitamin D3 receptor (Homo sapiens), P11473 (parent)
chain: MEAMAASTSLPDPGDFDRNVPRICGVCGDRATGFHFNAMTCEGCKGFFRRSMKRKALFTCPFNGDCRITKDNRRHCQACRLKRCVDIGMMKEFILTDEEVQRKREMILKRKEEEALKDSLRPKLSEEQQRIIAILLDAHHKTYDPTYSDFCQFRPPVRVNDGGGSHPSRPNSRHTPSFSGDSSSSCSDHCITSSDMMDSSSFSNLDLSEEDSDDPSVTLELSQLSMLPHLADLVSYSIQKVIGFAKMIPGFRDLTSEDQIVLLKSSAIEVIMLRSNESFTMDDMSWTCGNQDYKYRVSDVTKAGHSLELIEPLIKFQVGLKKLNLHEEEHVLLMAICIVSPDRPGVQDAALIEAIQDRLSNTLQTYIRCRHPPPGSHLLYAKMIQKLADLRSLNEEHSKQYRCLSFQPECSMKLTPLVLEVFGNEIS

Variants of: B1
Conditions: with ncoa1_human NCOA1, Q15788
Chain of ncoa1_human NCOA1, Q15788 (Q15788 whole entry): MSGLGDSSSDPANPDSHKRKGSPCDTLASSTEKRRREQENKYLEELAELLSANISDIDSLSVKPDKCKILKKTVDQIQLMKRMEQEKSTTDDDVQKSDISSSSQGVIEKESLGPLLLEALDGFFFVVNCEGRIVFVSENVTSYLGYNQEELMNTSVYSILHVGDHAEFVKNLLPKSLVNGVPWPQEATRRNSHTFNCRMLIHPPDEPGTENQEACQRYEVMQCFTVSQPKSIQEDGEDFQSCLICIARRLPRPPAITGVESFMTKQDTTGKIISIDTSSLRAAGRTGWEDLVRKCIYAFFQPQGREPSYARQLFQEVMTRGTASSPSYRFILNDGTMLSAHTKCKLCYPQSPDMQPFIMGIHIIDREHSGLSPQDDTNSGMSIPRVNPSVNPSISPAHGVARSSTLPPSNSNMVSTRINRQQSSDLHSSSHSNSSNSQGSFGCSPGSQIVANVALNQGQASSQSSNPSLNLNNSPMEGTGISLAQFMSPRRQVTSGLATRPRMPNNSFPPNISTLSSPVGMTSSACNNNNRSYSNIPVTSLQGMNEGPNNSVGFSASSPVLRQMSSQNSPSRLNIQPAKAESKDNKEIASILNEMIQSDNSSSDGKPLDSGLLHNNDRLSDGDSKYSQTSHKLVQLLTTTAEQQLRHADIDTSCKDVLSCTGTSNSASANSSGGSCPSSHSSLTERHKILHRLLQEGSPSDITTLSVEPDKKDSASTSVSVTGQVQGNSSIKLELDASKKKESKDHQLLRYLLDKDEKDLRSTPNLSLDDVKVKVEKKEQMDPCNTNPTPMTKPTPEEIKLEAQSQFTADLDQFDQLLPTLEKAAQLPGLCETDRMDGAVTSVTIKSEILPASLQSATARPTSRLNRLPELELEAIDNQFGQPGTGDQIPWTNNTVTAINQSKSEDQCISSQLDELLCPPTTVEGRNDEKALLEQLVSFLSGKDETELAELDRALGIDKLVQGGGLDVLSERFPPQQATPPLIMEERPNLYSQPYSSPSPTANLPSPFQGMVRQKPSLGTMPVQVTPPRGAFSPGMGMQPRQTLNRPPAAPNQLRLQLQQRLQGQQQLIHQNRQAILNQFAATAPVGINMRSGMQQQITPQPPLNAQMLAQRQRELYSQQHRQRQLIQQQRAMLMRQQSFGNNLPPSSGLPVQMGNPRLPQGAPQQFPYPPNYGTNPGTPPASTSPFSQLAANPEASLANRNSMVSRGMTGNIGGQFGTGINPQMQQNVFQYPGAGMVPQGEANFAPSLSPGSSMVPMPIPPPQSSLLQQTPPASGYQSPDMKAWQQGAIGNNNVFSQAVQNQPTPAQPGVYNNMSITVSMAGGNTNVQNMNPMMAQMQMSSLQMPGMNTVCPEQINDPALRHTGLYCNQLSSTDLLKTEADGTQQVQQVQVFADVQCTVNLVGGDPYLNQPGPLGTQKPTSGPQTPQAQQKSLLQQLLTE

Row | effect of a mutation on the interaction | Variant
1 | disrupting interaction strength | E420K

Variants of: B1
Conditions: with med1_human MED1, Q15648
Chain of med1_human MED1, Q15648 (Q15648 whole entry): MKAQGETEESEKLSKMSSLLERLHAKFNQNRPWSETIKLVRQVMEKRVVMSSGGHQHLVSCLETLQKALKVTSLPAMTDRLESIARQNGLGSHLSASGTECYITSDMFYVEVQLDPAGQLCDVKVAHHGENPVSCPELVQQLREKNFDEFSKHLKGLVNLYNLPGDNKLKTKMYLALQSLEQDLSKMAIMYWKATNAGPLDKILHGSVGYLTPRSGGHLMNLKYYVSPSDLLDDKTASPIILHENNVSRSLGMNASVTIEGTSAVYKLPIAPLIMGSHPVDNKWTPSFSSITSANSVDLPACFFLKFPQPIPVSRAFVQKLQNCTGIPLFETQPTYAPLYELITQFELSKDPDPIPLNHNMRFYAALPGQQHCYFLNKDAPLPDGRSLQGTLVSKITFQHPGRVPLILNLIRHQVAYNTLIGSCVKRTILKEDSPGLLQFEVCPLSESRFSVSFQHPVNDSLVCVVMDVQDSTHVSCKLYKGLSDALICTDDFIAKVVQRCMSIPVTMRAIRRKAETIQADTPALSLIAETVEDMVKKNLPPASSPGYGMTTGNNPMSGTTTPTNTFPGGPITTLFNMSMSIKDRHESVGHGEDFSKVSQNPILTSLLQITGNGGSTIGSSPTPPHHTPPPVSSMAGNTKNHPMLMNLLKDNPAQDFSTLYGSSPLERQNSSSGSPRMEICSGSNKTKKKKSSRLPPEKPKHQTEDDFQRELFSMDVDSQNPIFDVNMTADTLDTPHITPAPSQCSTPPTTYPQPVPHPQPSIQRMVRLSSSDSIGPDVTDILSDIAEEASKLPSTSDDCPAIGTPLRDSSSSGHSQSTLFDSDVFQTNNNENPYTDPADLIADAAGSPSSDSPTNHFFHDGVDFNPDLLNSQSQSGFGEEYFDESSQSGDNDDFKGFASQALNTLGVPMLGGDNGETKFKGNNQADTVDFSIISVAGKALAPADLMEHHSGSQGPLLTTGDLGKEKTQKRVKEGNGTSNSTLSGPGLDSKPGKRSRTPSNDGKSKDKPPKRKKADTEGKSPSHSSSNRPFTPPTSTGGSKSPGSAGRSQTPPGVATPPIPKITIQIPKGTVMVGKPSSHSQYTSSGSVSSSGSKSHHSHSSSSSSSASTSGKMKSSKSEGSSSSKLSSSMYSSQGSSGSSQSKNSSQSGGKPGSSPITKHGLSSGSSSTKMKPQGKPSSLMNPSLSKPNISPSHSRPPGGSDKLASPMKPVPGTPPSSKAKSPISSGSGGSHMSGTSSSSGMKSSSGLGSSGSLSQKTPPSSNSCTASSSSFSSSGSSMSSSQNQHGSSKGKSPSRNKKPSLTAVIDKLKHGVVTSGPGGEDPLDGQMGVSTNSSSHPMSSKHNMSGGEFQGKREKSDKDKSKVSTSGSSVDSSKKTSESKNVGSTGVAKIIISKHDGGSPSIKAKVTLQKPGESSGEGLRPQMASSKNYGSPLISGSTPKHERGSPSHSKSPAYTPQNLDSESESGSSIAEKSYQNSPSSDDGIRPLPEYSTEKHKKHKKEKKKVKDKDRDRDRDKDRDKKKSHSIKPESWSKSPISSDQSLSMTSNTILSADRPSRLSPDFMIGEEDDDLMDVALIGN

Row | effect of a mutation on the interaction | Variant
2 | disrupting interaction strength | E420K
